Measured values reported in patent US20090053761A1, “Polypeptide Mutagenesis Method” (University College Cardiff Consultants Ltd., priority 2005, published 2009).

Tested on: E. coli
Test: TEM-1 β-lactamase activity in vivo: ampicillin MIC of BLA DEL library colonies
Assay type: cell-based, Escherichia coli DH5α
Settings: minimum ampicillin concentration preventing growth of E. coli DH5α carrying the bla variant in pNOM; LB agar, 37° C., 16 hr
Protocol: The MuDel-inserted pNOM plasmids were isolated from each of the 22 colonies and equal amounts of each plasmid were pooled and subjected to restriction digestion with MlyI followed by agarose gel electrophoresis. The band corresponding to the linear pNOM minus MuDel was isolated and purified after agarose gel electrophoresis. Intramolecular ligation was performed using T4 DNA ligase and approximately 10 ng of linear pNOM (reaction conditions described above). The reaction was left at 25° C. for 10 min followed by 10 hr at 16° C. E. coli DH5α cells were transformed by electroporation with 1 μl of the ligation mixture. 500 μl of SOC medium was added to the cells immediately after electroporation and the cells were incubated at 37° C. for 1 hr. 50 μl and 500 μl of the recovering transformed cell cultures were plated on LB agar plates containing 15 μg/ml ampicillin. The plates were left overnight at 37° C. and 94 BLA^DEL library and two pNOM-containing colonies were selected and transferred to 96 deep-well culture plates containing 200 μl LB medium and 15 μg/ml ampicillin. The cells were grown for 16 hr at 37° C. with vigorous shaking. Sterile glycerol was added to 10% (v/v) for storage at −80° C.
The TEM-1 β-lactamase activity of each colony was measured in vivo by determining the minimum inhibitory concentration (MIC) of ampicillin that prevents E. coli growth. […]

B1: Wild-type (pNOM): wild-type TEM-1 β-lactamase encoded by the bla gene of pNOM, control (protein, UniProt P62593 24-286, looked up)
Beta-lactamase TEM: HPETLVKVKDAEDQLGARVGYIELDLNSGKILESFRPEERFPMMSTFKVLLCGAVLSRVDAGQEQLGRRIHYSQNDLVEYSPVTEKHLTDGMTVRELCSAAITMSDNTAANLLLTTIGGPKELTAFLHNMGDHVTRLDRWEPELNEAIPNDERDTTMPAAMATTLRKLLTGELLTLASRQQLIDWMEADKVAGPLLRSALPAGWFIADKSGAGERGSRGIIAALGPDGKPSRIVVIYTTGSQATMDERNRQIAEIGASLIKHW
  Amp MIC: > 10000 µg/mL
